The values below come from patent US20260001928A1 (CORTERIA PHARMACEUTICALS, priority 2022, published 2026).

Assay [1] concerns the target human corticotropin-releasing factor 2a (CRF2a receptor) (human), Q13324. As to the kind of experiment: cell-based or functional assay.
The target of a further assay is T1, CRF1R receptor (UniProt P34998 24-415, limits assumed).
T1 sequence (looked up): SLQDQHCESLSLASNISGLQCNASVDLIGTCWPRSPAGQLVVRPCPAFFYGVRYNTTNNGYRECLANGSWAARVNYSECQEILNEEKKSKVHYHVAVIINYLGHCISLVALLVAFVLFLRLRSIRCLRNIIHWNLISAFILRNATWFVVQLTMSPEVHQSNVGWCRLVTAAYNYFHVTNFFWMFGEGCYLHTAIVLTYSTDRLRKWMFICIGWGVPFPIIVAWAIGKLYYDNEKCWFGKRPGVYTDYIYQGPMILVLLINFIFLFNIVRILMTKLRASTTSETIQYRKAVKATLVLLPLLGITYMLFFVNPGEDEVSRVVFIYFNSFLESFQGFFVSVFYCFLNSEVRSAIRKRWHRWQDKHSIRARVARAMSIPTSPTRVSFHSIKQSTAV
The experiment in a line: cell-based or functional assay.

*1 amine or outer side, *2 acyl side, *3 side chain or, on linkers, in order; H or OH if unused. Where no end group is shown, it is not given here. Side-chain parts run from the residue outwards. [ ]: non-standard residue; d: D form. The star is where a group is joined. C18 diacid = O=C(O)CCCCCCCCCCCCCCCCC(=O)*; γGlu = O=C(O)[C@H](CCC(=O)[*:2])N[*:1]; NMeI = CC[C@H](C)[C@H](NC)C(=O)O; Api = NC1(C(=O)O)CCNCC1; Abu = CC[C@H](N)C(=O)O; Dap = NC[C@H](N)C(=O)O; AEEA = NCCOCCOCC(=O)O

Chain of human corticotropin-releasing factor 2a (CRF2a receptor) (human), Q13324 (Q13324 20-411): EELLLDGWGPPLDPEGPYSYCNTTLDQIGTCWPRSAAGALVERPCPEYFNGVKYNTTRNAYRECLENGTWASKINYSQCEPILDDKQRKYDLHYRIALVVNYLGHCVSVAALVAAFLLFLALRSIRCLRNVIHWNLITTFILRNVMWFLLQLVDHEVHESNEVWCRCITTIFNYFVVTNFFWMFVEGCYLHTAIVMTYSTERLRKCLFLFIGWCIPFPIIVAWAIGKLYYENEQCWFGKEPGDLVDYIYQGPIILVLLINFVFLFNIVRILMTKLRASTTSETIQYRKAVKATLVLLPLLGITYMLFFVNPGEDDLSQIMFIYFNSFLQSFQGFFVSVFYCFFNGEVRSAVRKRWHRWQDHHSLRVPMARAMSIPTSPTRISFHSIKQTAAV

B1: SEQ ID NO 130 (peptide)
peptide: Ac-IVLSLD[dV]PIKLK([γGlu-C18 diacid])KILLEQEKQKKQREQAETNEQILAQV-NH2
SMILES: CC[C@H](C)[C@H](NC(C)=O)C(=O)N[C@H](C(=O)N[C@@H](CC(C)C)C(=O)N[C@@H](CO)C(=O)N[C@@H](CC(C)C)C(=O)N[C@@H](CC(=O)O)C(=O)N[C@@H](C(=O)N1CCC[C@H]1C(=O)N[C@H](C(=O)N[C@@H](CCCCN)C(=O)N[C@@H](CC(C)C)C(=O)N[C@@H](CCCCNC(=O)CC[C@H](NC(=O)CCCCCCCCCCCCCCCCC(=O)O)C(=O)O)C(=O)N[C@@H](CCCCN)C(=O)N[C@H](C(=O)N[C@@H](CC(C)C)C(=O)N[C@@H](CC(C)C)C(=O)N[C@@H](CCC(=O)O)C(=O)N[C@@H](CCC(N)=O)C(=O)N[C@@H](CCC(=O)O)C(=O)N[C@@H](CCCCN)C(=O)N[C@@H](CCC(N)=O)C(=O)N[C@@H](CCCCN)C(=O)N[C@@H](CCCCN)C(=O)N[C@@H](CCC(N)=O)C(=O)N[C@@H](CCCNC(=N)N)C(=O)N[C@@H](CCC(=O)O)C(=O)N[C@@H](CCC(N)=O)C(=O)N[C@@H](C)C(=O)N[C@@H](CCC(=O)O)C(=O)N[C@H](C(=O)N[C@@H](CC(N)=O)C(=O)N[C@@H](CCC(=O)O)C(=O)N[C@@H](CCC(N)=O)C(=O)N[C@H](C(=O)N[C@@H](CC(C)C)C(=O)N[C@@H](C)C(=O)N[C@@H](CCC(N)=O)C(=O)N[C@H](C(N)=O)C(C)C)[C@@H](C)CC)[C@@H](C)O)[C@@H](C)CC)[C@@H](C)CC)C(C)C)C(C)C
On to B1, for which, in assay [1], the EC50 [nM] (cAMP) worked out at 0.08 nM. Also, the “Emax (% I)” value in the assay with CRF1R receptor stood at 4%.

B2: SEQ ID NO 117 (peptide)
peptide: [NMeI]VLSLD[dV]PIKLK([AEEA-AEEA-γGlu-C18 diacid])KILLEQEKQKKQREQAETN[Api]QILAQV-NH2
modifications: N-terminus assumed
SMILES: CC[C@H](C)[C@H](NC)C(=O)N[C@H](C(=O)N[C@@H](CC(C)C)C(=O)N[C@@H](CO)C(=O)N[C@@H](CC(C)C)C(=O)N[C@@H](CC(=O)O)C(=O)N[C@@H](C(=O)N1CCC[C@H]1C(=O)N[C@H](C(=O)N[C@@H](CCCCN)C(=O)N[C@@H](CC(C)C)C(=O)N[C@@H](CCCCNC(=O)COCCOCCNC(=O)COCCOCCNC(=O)CC[C@H](NC(=O)CCCCCCCCCCCCCCCCC(=O)O)C(=O)O)C(=O)N[C@@H](CCCCN)C(=O)N[C@H](C(=O)N[C@@H](CC(C)C)C(=O)N[C@@H](CC(C)C)C(=O)N[C@@H](CCC(=O)O)C(=O)N[C@@H](CCC(N)=O)C(=O)N[C@@H](CCC(=O)O)C(=O)N[C@@H](CCCCN)C(=O)N[C@@H](CCC(N)=O)C(=O)N[C@@H](CCCCN)C(=O)N[C@@H](CCCCN)C(=O)N[C@@H](CCC(N)=O)C(=O)N[C@@H](CCCNC(=N)N)C(=O)N[C@@H](CCC(=O)O)C(=O)N[C@@H](CCC(N)=O)C(=O)N[C@@H](C)C(=O)N[C@@H](CCC(=O)O)C(=O)N[C@H](C(=O)N[C@@H](CC(N)=O)C(=O)NC1(C(=O)N[C@@H](CCC(N)=O)C(=O)N[C@H](C(=O)N[C@@H](CC(C)C)C(=O)N[C@@H](C)C(=O)N[C@@H](CCC(N)=O)C(=O)N[C@H](C(N)=O)C(C)C)[C@@H](C)CC)CCNCC1)[C@@H](C)O)[C@@H](C)CC)[C@@H](C)CC)C(C)C)C(C)C
For B2, the EC50 [nM] (cAMP) in assay [1] worked out at 0.63 nM. Moreover, the “Emax (% I)” value with CRF1R receptor came to 3%.

B3: SEQ ID NO 140 (peptide)
peptide: [NMeI]VLSLD[dV]PIKLK([γGlu-C18 diacid])KILLEQEKQKKQREQAETN[Dap]QILAQV-NH2
modifications: N-terminus assumed
SMILES: CC[C@H](C)[C@H](NC)C(=O)N[C@H](C(=O)N[C@@H](CC(C)C)C(=O)N[C@@H](CO)C(=O)N[C@@H](CC(C)C)C(=O)N[C@@H](CC(=O)O)C(=O)N[C@@H](C(=O)N1CCC[C@H]1C(=O)N[C@H](C(=O)N[C@@H](CCCCN)C(=O)N[C@@H](CC(C)C)C(=O)N[C@@H](CCCCNC(=O)CC[C@H](NC(=O)CCCCCCCCCCCCCCCCC(=O)O)C(=O)O)C(=O)N[C@@H](CCCCN)C(=O)N[C@H](C(=O)N[C@@H](CC(C)C)C(=O)N[C@@H](CC(C)C)C(=O)N[C@@H](CCC(=O)O)C(=O)N[C@@H](CCC(N)=O)C(=O)N[C@@H](CCC(=O)O)C(=O)N[C@@H](CCCCN)C(=O)N[C@@H](CCC(N)=O)C(=O)N[C@@H](CCCCN)C(=O)N[C@@H](CCCCN)C(=O)N[C@@H](CCC(N)=O)C(=O)N[C@@H](CCCNC(=N)N)C(=O)N[C@@H](CCC(=O)O)C(=O)N[C@@H](CCC(N)=O)C(=O)N[C@@H](C)C(=O)N[C@@H](CCC(=O)O)C(=O)N[C@H](C(=O)N[C@@H](CC(N)=O)C(=O)N[C@@H](CN)C(=O)N[C@@H](CCC(N)=O)C(=O)N[C@H](C(=O)N[C@@H](CC(C)C)C(=O)N[C@@H](C)C(=O)N[C@@H](CCC(N)=O)C(=O)N[C@H](C(N)=O)C(C)C)[C@@H](C)CC)[C@@H](C)O)[C@@H](C)CC)[C@@H](C)CC)C(C)C)C(C)C
Consider B3, for which, in assay [1], the EC50 [nM] (cAMP) is 0.17 nM. Besides, in the assay with CRF1R receptor, the “Emax (% I)” value turned out to be 14%.

B4: SEQ ID NO 115 (peptide)
peptide: [NMeI]VLSLD[dV]PIKLK([AEEA-AEEA-γGlu-C18 diacid])KILLEQEKQKKQREQAETN[Dap]QILAQV-NH2
modifications: N-terminus assumed
SMILES: CC[C@H](C)[C@H](NC)C(=O)N[C@H](C(=O)N[C@@H](CC(C)C)C(=O)N[C@@H](CO)C(=O)N[C@@H](CC(C)C)C(=O)N[C@@H](CC(=O)O)C(=O)N[C@@H](C(=O)N1CCC[C@H]1C(=O)N[C@H](C(=O)N[C@@H](CCCCN)C(=O)N[C@@H](CC(C)C)C(=O)N[C@@H](CCCCNC(=O)COCCOCCNC(=O)COCCOCCNC(=O)CC[C@H](NC(=O)CCCCCCCCCCCCCCCCC(=O)O)C(=O)O)C(=O)N[C@@H](CCCCN)C(=O)N[C@H](C(=O)N[C@@H](CC(C)C)C(=O)N[C@@H](CC(C)C)C(=O)N[C@@H](CCC(=O)O)C(=O)N[C@@H](CCC(N)=O)C(=O)N[C@@H](CCC(=O)O)C(=O)N[C@@H](CCCCN)C(=O)N[C@@H](CCC(N)=O)C(=O)N[C@@H](CCCCN)C(=O)N[C@@H](CCCCN)C(=O)N[C@@H](CCC(N)=O)C(=O)N[C@@H](CCCNC(=N)N)C(=O)N[C@@H](CCC(=O)O)C(=O)N[C@@H](CCC(N)=O)C(=O)N[C@@H](C)C(=O)N[C@@H](CCC(=O)O)C(=O)N[C@H](C(=O)N[C@@H](CC(N)=O)C(=O)N[C@@H](CN)C(=O)N[C@@H](CCC(N)=O)C(=O)N[C@H](C(=O)N[C@@H](CC(C)C)C(=O)N[C@@H](C)C(=O)N[C@@H](CCC(N)=O)C(=O)N[C@H](C(N)=O)C(C)C)[C@@H](C)CC)[C@@H](C)O)[C@@H](C)CC)[C@@H](C)CC)C(C)C)C(C)C
As to B4, the EC50 [nM] (cAMP) in assay [1] worked out at 0.76 nM. For the same molecule, the “Emax (% I)” value with CRF1R receptor is 4%.

B5: SEQ ID NO 114 (peptide)
peptide: [NMeI]VLSLD[dV]PIKLK([AEEA-AEEA-γGlu-C18 diacid])KILLEQEKQKKQREQAETN[Abu]QILAQV-NH2
modifications: N-terminus assumed
SMILES: CC[C@H](NC(=O)[C@H](CC(N)=O)NC(=O)[C@@H](NC(=O)[C@H](CCC(=O)O)NC(=O)[C@H](C)NC(=O)[C@H](CCC(N)=O)NC(=O)[C@H](CCC(=O)O)NC(=O)[C@H](CCCNC(=N)N)NC(=O)[C@H](CCC(N)=O)NC(=O)[C@H](CCCCN)NC(=O)[C@H](CCCCN)NC(=O)[C@H](CCC(N)=O)NC(=O)[C@H](CCCCN)NC(=O)[C@H](CCC(=O)O)NC(=O)[C@H](CCC(N)=O)NC(=O)[C@H](CCC(=O)O)NC(=O)[C@H](CC(C)C)NC(=O)[C@H](CC(C)C)NC(=O)[C@@H](NC(=O)[C@H](CCCCN)NC(=O)[C@H](CCCCNC(=O)COCCOCCNC(=O)COCCOCCNC(=O)CC[C@H](NC(=O)CCCCCCCCCCCCCCCCC(=O)O)C(=O)O)NC(=O)[C@H](CC(C)C)NC(=O)[C@H](CCCCN)NC(=O)[C@@H](NC(=O)[C@@H]1CCCN1C(=O)[C@H](NC(=O)[C@H](CC(=O)O)NC(=O)[C@H](CC(C)C)NC(=O)[C@H](CO)NC(=O)[C@H](CC(C)C)NC(=O)[C@@H](NC(=O)[C@@H](NC)[C@@H](C)CC)C(C)C)C(C)C)[C@@H](C)CC)[C@@H](C)CC)[C@@H](C)O)C(=O)N[C@@H](CCC(N)=O)C(=O)N[C@H](C(=O)N[C@@H](CC(C)C)C(=O)N[C@@H](C)C(=O)N[C@@H](CCC(N)=O)C(=O)N[C@H](C(N)=O)C(C)C)[C@@H](C)CC
For the molecule B5, in assay [1], the EC50 [nM] (cAMP) stood at 0.18 nM. The “Emax (% I)” value with CRF1R receptor was found to be 6%.

B6: SEQ ID NO 139 (peptide)
peptide: [NMeI]VLSLD[dV]PIKLK([γGlu-C18 diacid])KILLEQEKQKKQREQAETN[Abu]QILAQV-NH2
modifications: N-terminus assumed
SMILES: CC[C@H](NC(=O)[C@H](CC(N)=O)NC(=O)[C@@H](NC(=O)[C@H](CCC(=O)O)NC(=O)[C@H](C)NC(=O)[C@H](CCC(N)=O)NC(=O)[C@H](CCC(=O)O)NC(=O)[C@H](CCCNC(=N)N)NC(=O)[C@H](CCC(N)=O)NC(=O)[C@H](CCCCN)NC(=O)[C@H](CCCCN)NC(=O)[C@H](CCC(N)=O)NC(=O)[C@H](CCCCN)NC(=O)[C@H](CCC(=O)O)NC(=O)[C@H](CCC(N)=O)NC(=O)[C@H](CCC(=O)O)NC(=O)[C@H](CC(C)C)NC(=O)[C@H](CC(C)C)NC(=O)[C@@H](NC(=O)[C@H](CCCCN)NC(=O)[C@H](CCCCNC(=O)CC[C@H](NC(=O)CCCCCCCCCCCCCCCCC(=O)O)C(=O)O)NC(=O)[C@H](CC(C)C)NC(=O)[C@H](CCCCN)NC(=O)[C@@H](NC(=O)[C@@H]1CCCN1C(=O)[C@H](NC(=O)[C@H](CC(=O)O)NC(=O)[C@H](CC(C)C)NC(=O)[C@H](CO)NC(=O)[C@H](CC(C)C)NC(=O)[C@@H](NC(=O)[C@@H](NC)[C@@H](C)CC)C(C)C)C(C)C)[C@@H](C)CC)[C@@H](C)CC)[C@@H](C)O)C(=O)N[C@@H](CCC(N)=O)C(=O)N[C@H](C(=O)N[C@@H](CC(C)C)C(=O)N[C@@H](C)C(=O)N[C@@H](CCC(N)=O)C(=O)N[C@H](C(N)=O)C(C)C)[C@@H](C)CC
For B6, in assay [1], the EC50 [nM] (cAMP) came out at 0.05 nM. The “Emax (% I)” value with CRF1R receptor came to 13%.
